Tests used:
[1] = biological target: T1, hPRLR.mFc (soluble dimeric human PRLR) (Homo sapiens, UniProt P16471); test: Surface plasmon resonance (Biacore T200), mAb-capture format; assay type: binding; conditions: antibody-capture format, analyte hPRLR.mFc
T1 construct: dimeric (hPRLR.mFc)
Procedure, shortened: (§1)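 Rate constants ka and kd were obtained by fitting sensorgrams to a 1:1 model. Test mAbs, as human IgG1 Fc forms, sat on an anti-human Fc surface while soluble PRLR ectodomain protein passed over it, either monomeric (human or cynomolgus .mmh) or dimeric (human mFc fusion).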

[2] = biological target: T2, hPRLR.mmh (soluble monomeric human PRLR) (Homo sapiens, UniProt P16471); test: as above; assay type: binding; conditions: antibody-capture format, analyte hPRLR.mmh
T2 construct: soluble monomeric (hPRLR.mmh); mmh (myc-myc-hexahistidine)
Procedure, shortened: as §1

[3] = biological target: mfPRLR.mmh (monomeric macaca fascicularis PRLR); test: as above; assay type: binding; conditions: antibody-capture format, analyte mfPRLR.mmh
Procedure, shortened: as §1

HEK293/mfPRLR = test: FACS cell surface binding; set-up: species or system macaca fascicularis
Procedure, shortened: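 HEK293 lines stably expressing HA-tagged human, cynomolgus or mouse PRLR, native-expressing T47D and parental HEK293 tested by flow cytometry. Cells (1×10^5) stained with primary antibody 30 min on ice, then PE anti-human secondary; MFI expressed as fold over isotype control.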

[4] = system: HEK293/hPRLR/STAT5-Luc cells (human PRLR); test: STAT5-Luc luciferase reporter assay, blocking of PRL-mediated receptor activation; assay type: cell-based; conditions: for Percent Blocking at 100 nM Antibody: 5 nM PRL; for IC50: 5 nM constant PRL, 6 hr at 37° C.
Procedure, shortened: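 Engineered HEK293 line stably carrying human PRLR and a STAT5-dependent luciferase reporter; antibodies (100 nM to 24 pM) incubated 6 hr at 37° C with 5 nM constant PRL, luminescence read. IC50 from four-parameter fit of 8-point curves; percent blocking at highest antibody dose; agonism without ligand also tested.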

T2 sequence (P16471 with tags, fused parts or gaps): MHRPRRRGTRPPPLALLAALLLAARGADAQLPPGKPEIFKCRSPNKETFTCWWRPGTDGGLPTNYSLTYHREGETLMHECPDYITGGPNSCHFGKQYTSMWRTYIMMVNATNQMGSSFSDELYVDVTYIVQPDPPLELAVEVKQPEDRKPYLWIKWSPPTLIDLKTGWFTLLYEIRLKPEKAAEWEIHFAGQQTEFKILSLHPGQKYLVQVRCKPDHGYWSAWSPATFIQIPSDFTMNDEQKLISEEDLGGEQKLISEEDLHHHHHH
T1 sequence (P16471 with tags, fused parts or gaps): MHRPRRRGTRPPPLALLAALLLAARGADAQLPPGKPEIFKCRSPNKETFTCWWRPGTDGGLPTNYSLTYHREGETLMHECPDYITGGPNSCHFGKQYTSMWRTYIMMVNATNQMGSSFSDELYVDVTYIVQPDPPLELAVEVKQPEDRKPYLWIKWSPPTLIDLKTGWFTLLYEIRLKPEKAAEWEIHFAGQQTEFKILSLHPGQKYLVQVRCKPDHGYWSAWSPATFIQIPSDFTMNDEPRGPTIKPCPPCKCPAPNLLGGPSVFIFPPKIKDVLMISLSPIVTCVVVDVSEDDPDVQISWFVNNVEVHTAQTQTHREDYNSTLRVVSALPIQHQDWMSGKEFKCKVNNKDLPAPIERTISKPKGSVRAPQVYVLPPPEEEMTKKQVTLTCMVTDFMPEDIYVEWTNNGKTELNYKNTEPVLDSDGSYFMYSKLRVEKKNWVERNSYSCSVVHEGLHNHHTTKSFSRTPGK
mfPRLR.mmh (monomeric macaca fascicularis PRLR), sequence (as listed by the source): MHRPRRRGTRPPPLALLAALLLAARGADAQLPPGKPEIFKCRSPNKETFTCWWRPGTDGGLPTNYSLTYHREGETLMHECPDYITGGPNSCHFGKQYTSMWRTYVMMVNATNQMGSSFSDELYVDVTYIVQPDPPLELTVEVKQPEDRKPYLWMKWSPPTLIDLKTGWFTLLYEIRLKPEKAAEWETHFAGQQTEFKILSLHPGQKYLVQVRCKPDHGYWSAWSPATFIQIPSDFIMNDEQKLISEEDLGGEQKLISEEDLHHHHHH
HEK293/mfPRLR, sequence (as listed by the source): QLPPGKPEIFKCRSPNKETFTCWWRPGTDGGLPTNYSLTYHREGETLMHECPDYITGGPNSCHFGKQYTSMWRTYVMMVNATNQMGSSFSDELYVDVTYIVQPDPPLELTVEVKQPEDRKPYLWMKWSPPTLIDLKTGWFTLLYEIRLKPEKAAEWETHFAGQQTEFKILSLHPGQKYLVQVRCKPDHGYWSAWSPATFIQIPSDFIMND

Kd ([1]; 25° C.) [nM] | T½ ([1]; 25° C.) [min] | Kd ([1]; 37° C.) [nM] | T½ ([1]; 37° C.) [min] | Kd ([2]; 25° C.) [nM] | T½ ([2]; 25° C.) [min] | Kd ([2]; 37° C.) [nM] | T½ ([2]; 37° C.) [min] | Kd ([3]; 25° C.) [nM] | Kd ([3]; 37° C.) [nM] | Molecule | T½ ([3]; 25° C.) [min] | T½ ([3]; 37° C.) [min] | FACS Cell Binding (Fold Above Background) (HEK293/mfPRLR) | Percent Blocking at 100 nM Antibody [4] [%] | IC50 [4] [nM]
0.0545 | 137 | 0.0402 | 149 | 1.52 | 7 | 3.81 | 2 | 2.33 | 6.16 | H1H6795P: anti-PRLR antibody, human IgG1 Fc; HCVR/LCVR SEQ ID NOs 162/170 (antibody, V domains shown, human IgG1 Fc) VH: QVQLVQSGAEVKKPGASVKVSCKASGYTFGTSGITWVRQAPGQGLEWMGWSSAYNGKTDYAQKFQDRVTMTTDTSTTTGYMEMRSLTSDDTAVYYCTTVVRRPFDFWGQGTLVTVSS VL: DIQMTQSPSSLSASVGDRVTITCRASQDINNFLAWFQQKPGKAPKSLIYAASSLQSGVPSKFSGGGSGTDFALTISSLQPEDFATYYCQQYSSYPITFGQGTRLEIK | 6 | 2 | 22 | 0 | –
0.067 | 242.2 | 0.116 | 68.0 | 0.268 | 54.5 | 1.11 | 9.4 | 0.438 | 2.71 | H1H6953N: human IgG1 Fc form of H1M6953N; anti-PRLR; HCVR/LCVR SEQ ID NOs 274/282 (antibody, V domains shown, human IgG1 Fc) VH: EVQLLESGGGLVQPGGTLRLSCAASGFTFSAYAMSWVRQAPGKGLEWVSSINVRAGDTYYADSVKGRFTISRDNSKNTLFLLMNSLRAEDTAAYYCAKARYSSNWGFDFWGQGTLVTVSS VL: DIVMTQSPDSLTVSLGARTTINCQSSQTILHSSNNHNYLAWYQQKPGLPPKLLIYWSSTRESGVPDRFSGSGSGTDFTLTISSLQAEDVAIYYCQQYSNTPYTFGQGTKLEIN | 36.3 | 4.5 | 29 | 100 | 0.105
0.161 | 106 | 0.279 | 52 | 0.894 | 15 | 4.63 | 3 | 1.88 | 10.8 | H1H6801P: anti-PRLR antibody, human IgG1 Fc; HCVR/LCVR SEQ ID NOs 210/218 (antibody, V domains shown, human IgG1 Fc) VH: QVQLQQSGPGLVKPSQTLSLTCVISGDSVSSNTAWNWVRQSPSRGLEWLGRTYYRSKWYNDYAVSVKSRITINPDTSKNQFSLLMNSVTPEDTAVYYCARVVRGLNYFDYWGQGTLVTVSS VL: DIVMTQSPDSLAVSLGERATINCKSSQSVLYNSNNKNYLAWYQQKPGQPPKLLIYWSSSRESGVPDRFSGSGSGTDFTLTISGLQAEDVAIYYCQQYSTIPYTFGQGTKLEIK | 9 | 1 | 88 | 100 | 0.14
0.607 | 184 | 0.461 | 186 | 1.67 | 84 | 2.83 | 32 | 3.37 | 7.28 | H1H6803P: anti-PRLR antibody, human IgG1 Fc; HCVR/LCVR SEQ ID NOs 226/234 (antibody, V domains shown, human IgG1 Fc) VH: EVQLVESGGGVVRPGGSLRLSCAASGFKFDDYGMTWVRHVPGKGLEWVSGINWNGGRTGYTDSVKGRFTISRDNAKNSLYLQMNSLRAEDTALYHCAGARRDAFDIWGQGTMVTVSS VL: DIQMTQSPSSLSASIGDRVTITCRASQNIIKYLNWYQQNAGKAPKLLIYTASSLQSGVPSRFSGSGSGTDFTLTISSLQPEDFATYYCQQSSSSPYTFGQGTKLEIK | 55 | 18 | 28 | 100 | 0.627
0.184 | 133 | 0.229 | 79 | 0.972 | 28 | 1.47 | 10 | 1.25 | 2.48 | H1H6800P: anti-PRLR antibody, human IgG1 Fc; HCVR/LCVR SEQ ID NOs 194/202 (antibody, V domains shown, human IgG1 Fc) VH: EVQLVESGGGLVQPGRSLRLSCAASGFTFDGYAMHWVRQGPGKGLEWVSGISWYSDTLGYADSVKGRFTISRDNAKNSLYLQMNSLRTEDTAFYYCAKISSSGWAFDYWGQGTLVTVSS VL: EIVLTQSPGTLSLSPGERATLSCRASHSVSSAYLAWYQQKPGQTPRLLIYGTSSRATGIPDRFSGSGSGTDFTLTISRLEPEDFAVYYCQQYGSSPLFTFGPGTKVDIK | 30 | 11 | 29 | 100 | 0.355
0.122 | 97 | 0.0691 | 93 | 1.73 | 6 | 6.37 | 1 | 3.12 | 9.9 | H1H6797P: anti-PRLR antibody, human IgG1 Fc; HCVR/LCVR SEQ ID NOs 178/186 (antibody, V domains shown, human IgG1 Fc) VH: EVQLVESGGGLVQPGGSLRLSCIVSGFTFSGSWMSWVRQLPGKGLEWVANIKEDGSDSYYVDSVEGRFTISRDNAKSSLYLQMNSLRVDDTAVYFCARARTVPLHYWGQGTLVTVSS VL: DIQMTQSPSTLSASVGDRVTITCRASQSINIWLAWYQQKPGKAPKLLIYRASYLESGVPSSFAGGGSGTEFTLTISSLQPDDFGTYYCQHYNSYPFTFGQGTKLEIK | 6 | 1 | 25 | 0 | –
0.193 | 133 | 0.369 | 56 | 1.4 | 18 | 6.34 | 3 | 1.99 | 9.35 | H1H6804P: anti-PRLR antibody, human IgG1 Fc; HCVR/LCVR SEQ ID NOs 242/250 (antibody, V domains shown, human IgG1 Fc) VH: QVTLKESGPVLVKPTQTLSLTCTVSGFSLSDAGMGVSWIRQPPGKALEWLAHIFSNDGKSYSTSLKSRLTISKDTSKRQVVLTMTNMDPVDTATYYCARIRTGTYSLYLDYWGQGTLVTVSS VL: DIQMTQSPSSLSASVGDRVTITCRASQSINSYLNWYQQKPGKAPKLLLYFASSLQSGVPSRFSGSGSGTDFTLTISSLQPEDFASYYCQESYSTPWTFGQGTKVEIK | 18 | 3 | 29 | 100 | 7.89
